Results as given in the Human Domainome abundance scans (Beltran et al. 2025).
± gives the uncertainty stated by the source.

B1: POU domain, class 3, transcription factor 3, residues 320 to 388; numbered along this chain, P20264 (parent)
chain: DDLEQFAKQFKQRRIKLGFTQADVGLALGTLYGNVFSQTTICRFEALQLSFKNMCKLKPLLNKWLEEAD

Variants of: B1
Experiment: abundance fitness (aPCA) (normalised: wild type 0, dead -1); higher = more abundant; growth selection in yeast, the domain comes from the species named
Settings: Homo sapiens

E66L and E66C are within error of each other in abundance fitness: -0.428 ± 0.12 for the first, -0.046 ± 0.37 for the second.

E66M and E66F are within error of each other in abundance fitness: 0.002 ± 0.098 for the first, -0.127 ± 0.19 for the second.

E66S and E66G are within error of each other in abundance fitness: -0.502 ± 0.35 for the first, -0.889 ± 0.33 for the second.

Compared with E66V, E66D is higher in abundance fitness: -0.225 ± 0.12 for the first, 0.402 ± 0.26 for the second.

E66H and E66T are within error of each other in abundance fitness: 0.082 ± 0.37 for the first, -0.132 ± 0.21 for the second.

Going from E66Y to E66I, the abundance fitness rises from -0.635 ± 0.31 to 0.075 ± 0.21.

E66K and E66R are within error of each other in abundance fitness: -0.123 ± 0.084 for the first, -0.146 ± 0.17 for the second.

First: E66N
Second: L61A
The abundance fitness of the first is higher: 0.122 ± 0.14 for the first, -0.803 ± 0.21 for the second.

L61I and L61E are within error of each other in abundance fitness: -0.696 ± 0.23 for the first, -0.99 ± 0.35 for the second.

L61T and L61K are within error of each other in abundance fitness: -0.513 ± 0.25 for the first, -0.66 ± 0.39 for the second.

L61P and L61R are within error of each other in abundance fitness: -0.928 ± 0.25 for the first, -0.97 ± 0.17 for the second.

L61C and L61W are within error of each other in abundance fitness: -0.796 ± 0.37 for the first, -0.881 ± 0.24 for the second.

First: L61V
Second: L61G
The abundance fitness of the first is higher: -0.513 ± 0.11 for the first, -0.891 ± 0.17 for the second.

First: L61M
Second: L61S
The abundance fitness of the first is higher: -0.522 ± 0.14 for the first, -0.977 ± 0.3 for the second.

L61Q and P59W are within error of each other in abundance fitness: -0.811 ± 0.27 for the first, -0.986 ± 0.35 for the second.

P59G and P59C are within error of each other in abundance fitness: -0.166 ± 0.17 for the first, -0.064 ± 0.12 for the second.

P59Q and P59M are within error of each other in abundance fitness: -0.333 ± 0.12 for the first, -0.279 ± 0.15 for the second.

P59R and P59K are within error of each other in abundance fitness: -0.389 ± 0.084 for the first, -0.247 ± 0.21 for the second.

P59L and P59T are within error of each other in abundance fitness: -0.378 ± 0.2 for the first, -0.459 ± 0.2 for the second.

P59V and P59E are within error of each other in abundance fitness: -0.377 ± 0.13 for the first, -0.353 ± 0.3 for the second.

P59S and N53Y are within error of each other in abundance fitness: -0.398 ± 0.16 for the first, -0.357 ± 0.17 for the second.

First: K58C
Second: K58G
The abundance fitness of the first is higher: 0.152 ± 0.27 for the first, -0.852 ± 0.22 for the second.

Compared with K58V, K58L is lower in abundance fitness: -0.398 ± 0.24 for the first, -0.875 ± 0.22 for the second.

K58I and K58S are within error of each other in abundance fitness: -0.416 ± 0.34 for the first, -0.796 ± 0.33 for the second.

Going from K58R to K58T, the abundance fitness falls from 0.031 ± 0.087 to -0.892 ± 0.17.

K58A and W64H are within error of each other in abundance fitness: -0.337 ± 0.094 for the first, -0.778 ± 0.45 for the second.

Going from W64T to W64V, the abundance fitness rises from -1.15 ± 0.42 to -0.305 ± 0.12.

W64P and W64E are within error of each other in abundance fitness: -0.746 ± 0.47 for the first, -0.792 ± 0.23 for the second.

W64I and W64M are within error of each other in abundance fitness: -0.715 ± 0.29 for the first, -0.83 ± 0.18 for the second.

W64A and W64R are within error of each other in abundance fitness: -0.737 ± 0.16 for the first, -0.582 ± 0.16 for the second.

W64L and W64G are within error of each other in abundance fitness: -0.913 ± 0.16 for the first, -0.77 ± 0.15 for the second.

W64Q and W64S are within error of each other in abundance fitness: -0.8 ± 0.34 for the first, -0.757 ± 0.3 for the second.

N62D and N62V are within error of each other in abundance fitness: 0.024 ± 0.24 for the first, 0.148 ± 0.076 for the second.

N62K and N62Q are within error of each other in abundance fitness: -0.12 ± 0.26 for the first, -0.028 ± 0.11 for the second.

N62A and N62L are within error of each other in abundance fitness: 0.001 ± 0.084 for the first, -0.126 ± 0.083 for the second.

Going from N62H to N62W, the abundance fitness falls from 0.11 ± 0.23 to -0.739 ± 0.27.

N62R and N62S are within error of each other in abundance fitness: -0.063 ± 0.076 for the first, 0.03 ± 0.046 for the second.

Compared with N62G, M54W is lower in abundance fitness: 0.052 ± 0.067 for the first, -0.801 ± 0.3 for the second.

M54I and M54C are within error of each other in abundance fitness: -0.911 ± 0.44 for the first, -0.636 ± 0.28 for the second.

M54R and M54Q are within error of each other in abundance fitness: -0.909 ± 0.2 for the first, -0.7 ± 0.25 for the second.

Compared with M54F, M54L is higher in abundance fitness: -0.96 ± 0.35 for the first, -0.428 ± 0.095 for the second.

M54S and M54T are within error of each other in abundance fitness: -0.483 ± 0.14 for the first, -0.733 ± 0.45 for the second.

Going from M54P to E67A, the abundance fitness rises from -1.05 ± 0.27 to -0.032 ± 0.097.

E67K and E67G are within error of each other in abundance fitness: -0.029 ± 0.23 for the first, -0.084 ± 0.099 for the second.

Compared with E67Q, E67L is higher in abundance fitness: -0.227 ± 0.18 for the first, 0.333 ± 0.2 for the second.

C55E and C55Y are within error of each other in abundance fitness: -0.255 ± 0.18 for the first, -0.269 ± 0.3 for the second.

First: C55M
Second: C55Q
The abundance fitness of the first is lower: -0.032 ± 0.1 for the first, 0.209 ± 0.1 for the second.

First: C55P
Second: C55I
The abundance fitness of the first is lower: -0.874 ± 0.32 for the first, -0.046 ± 0.24 for the second.

C55V and C55K are within error of each other in abundance fitness: 0.019 ± 0.077 for the first, -0.009 ± 0.13 for the second.

C55L and C55S are within error of each other in abundance fitness: -0.156 ± 0.081 for the first, -0.102 ± 0.1 for the second.

Compared with C55F, C55G is lower in abundance fitness: 0.253 ± 0.19 for the first, -0.354 ± 0.048 for the second.

C55T and C55H are within error of each other in abundance fitness: -0.186 ± 0.095 for the first, -0.199 ± 0.27 for the second.

C55W and C55N are within error of each other in abundance fitness: -0.177 ± 0.092 for the first, -0.102 ± 0.24 for the second.

L57K and L57H are within error of each other in abundance fitness: -0.645 ± 0.36 for the first, -0.333 ± 0.2 for the second.

First: L57S
Second: L57E
The abundance fitness of the first is higher: -0.572 ± 0.16 for the first, -1.16 ± 0.42 for the second.

Compared with L57R, L57W is higher in abundance fitness: -0.715 ± 0.091 for the first, -0.401 ± 0.12 for the second.

Going from L57G to L57M, the abundance fitness rises from -0.78 ± 0.2 to -0.279 ± 0.15.

L57T and L57V are within error of each other in abundance fitness: -0.698 ± 0.35 for the first, -0.535 ± 0.082 for the second.

Compared with L57P, L57A is lower in abundance fitness: 0.029 ± 0.14 for the first, -0.602 ± 0.17 for the second.

L60S and L60R are within error of each other in abundance fitness: -0.563 ± 0.33 for the first, -0.491 ± 0.47 for the second.

L60W and L60A are within error of each other in abundance fitness: -0.227 ± 0.26 for the first, -0.51 ± 0.46 for the second.

L60V and L60K are within error of each other in abundance fitness: -0.309 ± 0.17 for the first, -0.334 ± 0.22 for the second.

L65R and L65Q are within error of each other in abundance fitness: -0.674 ± 0.13 for the first, -0.73 ± 0.15 for the second.

L65I and L65G are within error of each other in abundance fitness: -0.513 ± 0.36 for the first, -0.935 ± 0.29 for the second.

First: L65K
Second: L65S
The abundance fitness of the first is higher: -0.211 ± 0.11 for the first, -0.58 ± 0.1 for the second.

Compared with L65M, L65T is lower in abundance fitness: -0.185 ± 0.12 for the first, -0.732 ± 0.37 for the second.

L65F and L65C are within error of each other in abundance fitness: -0.633 ± 0.47 for the first, -0.846 ± 0.37 for the second.

Compared with L65W, K63Q is higher in abundance fitness: -0.297 ± 0.098 for the first, -0.066 ± 0.073 for the second.

K63D and K63L are within error of each other in abundance fitness: -0.349 ± 0.21 for the first, -0.493 ± 0.059 for the second.

K63M and K63S are within error of each other in abundance fitness: -0.435 ± 0.1 for the first, -0.317 ± 0.066 for the second.

Going from K63E to K63G, the abundance fitness rises from -0.519 ± 0.13 to -0.074 ± 0.039.

K63W and K63Y are within error of each other in abundance fitness: -0.658 ± 0.093 for the first, -0.53 ± 0.12 for the second.

K63H and K63N are within error of each other in abundance fitness: -0.189 ± 0.05 for the first, -0.261 ± 0.13 for the second.

K63V and K63P are within error of each other in abundance fitness: -0.743 ± 0.093 for the first, -0.77 ± 0.13 for the second.

Going from K63A to K63I, the abundance fitness falls from -0.129 ± 0.06 to -0.697 ± 0.14.

K63F and K63C are within error of each other in abundance fitness: -0.149 ± 0.16 for the first, -0.147 ± 0.11 for the second.

Compared with K56L, K56C is lower in abundance fitness: -0.079 ± 0.064 for the first, -0.391 ± 0.16 for the second.

Compared with K56E, K56H is lower in abundance fitness: -0.066 ± 0.1 for the first, -0.61 ± 0.42 for the second.

K56I and K56R are within error of each other in abundance fitness: -0.063 ± 0.2 for the first, 0.017 ± 0.053 for the second.

Going from K56F to K56W, the abundance fitness falls from -0.11 ± 0.19 to -0.548 ± 0.12.

Going from K56S to K56G, the abundance fitness falls from -0.181 ± 0.08 to -0.539 ± 0.093.

K56D and K56M are within error of each other in abundance fitness: -0.163 ± 0.14 for the first, -0.173 ± 0.11 for the second.

K56Y and K56N are within error of each other in abundance fitness: -0.753 ± 0.45 for the first, -0.44 ± 0.24 for the second.

K56P gave an abundance fitness of -0.848 ± 0.28.
